Data set [1] addresses T1, MetR (C-his-MetR) (Shewanella oneidensis MR-1, UniProt Q8EIM1 1-301).
T1 sequence: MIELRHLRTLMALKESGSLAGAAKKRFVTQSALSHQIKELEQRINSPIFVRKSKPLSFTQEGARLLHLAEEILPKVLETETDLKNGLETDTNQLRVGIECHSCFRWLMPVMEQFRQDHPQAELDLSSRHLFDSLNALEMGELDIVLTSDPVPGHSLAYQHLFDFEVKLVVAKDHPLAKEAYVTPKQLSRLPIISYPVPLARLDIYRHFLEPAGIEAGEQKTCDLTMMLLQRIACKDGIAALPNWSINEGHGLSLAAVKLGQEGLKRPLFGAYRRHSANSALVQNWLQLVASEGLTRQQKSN
The data set can be described thus: EMSA; 4 mM hCys; 500 ng MetR; 50 mM Tris-HCl pH 8.0, 0.5 mM EDTA, 2 mM MgSO4, 1 mM DTT, 100 ug/mL BSA, 10 ug/mL poly(dI-dC), 4 mM hCys, 20% glycerol, 1 nM Cy3 probe, 20 uL; 20 C 10 min; gel. As to conditions: protein: recombinant, tags: C-terminal His tag (pET-26b(+), NdeI/XhoI), chain copies: 4, label: 5'-Cy3 on strand 2.

For data set [2], the target named is T1, MetR (C-his-MetR). Kind of data set: EMSA; 4 mM hCys; 0-250 ng MetR (4B), 500 ng (4C); 50 mM Tris-HCl pH 8.0, 0.5 mM EDTA, 2 mM MgSO4, 1 mM DTT, 100 ug/mL BSA, 10 ug/mL poly(dI-dC), 4 mM hCys, 20% glycerol, 1 nM Cy3 probe, 20 uL; 20 C 10 min; gel. The note with it: protein: recombinant; tags: C-terminal His tag (pET-26b(+), NdeI/XhoI); chain copies: 4; label: 5'-Cy3 on strand 2; blunt.

Data set [3] addresses T1, MetR (C-his-MetR). Kind of data set: competition; 4 mM hCys; 5,000-fold excess over labeled omcA probe, shift disappeared; 50 mM Tris-HCl pH 8.0, 0.5 mM EDTA, 2 mM MgSO4, 1 mM DTT, 100 ug/mL BSA, 10 ug/mL poly(dI-dC), 4 mM hCys, 20% glycerol, 1 nM Cy3 probe, 20 uL; 20 C 10 min; gel. As to conditions: protein: recombinant; tags: C-terminal His tag (pET-26b(+), NdeI/XhoI); chain copies: 4; label: none; blunt.

B1: cymA probe (dsDNA)
DNA 1: GTATTAGCTGGAGTTGAAGTACTCTAACGCTCTGCTAAGC
DNA 2: GCTTAGCAGAGCGTTAGAGTACTTCAACTCCAGCTAATA
As for B1, the binding result in data set [1] (5' overhang 1 nt on strand 1 as printed (strand 2 is 39 nt; text says 40 bp)) is “binds”.

B2: glyA probe (dsDNA)
DNA 1: CTCAACTCGGCATTGAGGTGCATTCAAGTTAAAACTGTAG
DNA 2: CTACAGTTTTAACTTGAATGCACCTCAATGCCGAGTTGAG
Take B2: the binding result in data set [1] (blunt) is “binds”.

B3: omcA probe (dsDNA)
DNA 1: CCACACATTAAATACGACTAATGAGATTTGTTCTTATTTG
DNA 2: CAAATAAGAACAAATCTCATTAGTCGTATTTAATGTGTGG
For B3, in data set [2], the binding result was “binds”.

B4: omcA probe, unlabeled competitor (dsDNA)
DNA 1: CCACACATTAAATACGACTAATGAGATTTGTTCTTATTTG
DNA 2: CAAATAAGAACAAATCTCATTAGTCGTATTTAATGTGTGG
For B4, the binding result in data set [3] is listed as “binds”.

B5: dmsE probe (dsDNA)
DNA 1: CTTATGGTGTTTTTGAGAATGATTTTCTTTTATTTGATTTC
DNA 2: GAAATCAAATAAAAGAAAATCATTCTCAAAAACACCATAAG
Take B5: the binding result in data set [1] (blunt) is “binds”.

B6: omcA-m probe (dsDNA)
DNA 1: CCACACATTAAATACGACTAAGGGGATTTGGGGGTATTTG
DNA 2: CAAATACCCCCAAATCCCCTTAGTCGTATTTAATGTGTGG
For B6, the binding result in data set [1] (blunt) is given as “no binding”.

B7: metR probe (dsDNA)
DNA 1: GATTTCAAGCGCAACATGAGCGAAATTCACTTGGAGTGATC
DNA 2: GATCACTCCAAGTGAATTTCGCTCATGTTGCGCTTGAAATC
In the case of B7, in data set [1] (blunt), the binding result is reported as “binds”.

B8: luxS probe (dsDNA)
DNA 1: GCATCTGACTGATATGAGATGATTTCATCTTAAGTTATC
DNA 2: GATAACTTAAGATGAAATCATCTCATATCAGTCAGATGC
Turning to B8, the binding result in data set [1] (blunt) was “binds”.

Values taken from paper PMC13393422, “Cross-regulation of amino acid synthesis and anaerobic electron transfer by MetR-mediated methionine signaling”.
